# From US20120329067A1
# Assays:
# [1] = biological target: ZFN with wild-type FokI cleavage domain carrying the DAMQS interface (DS architecture); assay: cell-based or functional assay
# [2] = biological target: ZFN with wild-type FokI cleavage domain carrying R487D (DD architecture); assay: cell-based or functional assay
binder,measurement,setting,value
"ZFN with wild-type FokI cleavage domain carrying D483R (RR architecture) (enzyme, part only; not given: zinc finger domain and linker, part only) chain, part: QLVKSELEEKKSELRHKLKYVPHEYIELIEIARNSTQDRILEMKVMEFFMKVYGYRGKHLGGSRKPDGAIYTVGSPIDYGVIVDTKAYSGGYNLPIGQAREMQRYVEENQTRNKHINPNEWWKVYPSSVTEFKFLFVSGHFKGNYKAQLTRLNHITNCNGAVLSVEELLIGGEMIKAGTLTLEEVRRKFNNGEINF","stimulation of mutagenesis in an EGFP reporter cell line (P3/E4 cleavage site), relative to wt (fraction of wt activity)",[1],0.33
same,"stimulation of mutagenesis in an EGFP reporter cell line (P3/E4 cleavage site), relative to wt (fraction of wt activity)",[2],0.167
